# Test results published in article PMC11908141 (bioRxiv, 2025).
# B1: enolase, native, Francisella novicida (enzyme)
# chain: MSSQIKQVFARQILDSRGNPTVEVDVVLESGAFGRAAVPSGASTGIREALELRDGNKALFLGKSVYKAVENVNTKIAQAVKGLDALDQRLIDKTMIELDGSENKKNLGANAILGVSLATARAAASHLRKPFYRYLMDVKEYLMPVPMMNVINGGSHADNNVDMQEFMIVPAGFDTFSEALRCGTEVFHTLKKVLIADGYSVAGVGDEGGYAPDLPSNEAAIEAILKAVKEAGYEPGKHVFIALDPASSEFYKDGKYELKSENKSLTSEEMIDYYAAWVEKYPIVSIEDGLAEEDWAGWKLLTEKLGNKVQLVGDDLFVTNPSILAKGIEKGIANSILIKLNQIGTLTETFEAMAMAGQAGYTCVVSHRSGETSDTIIADLAVATCSGQIKTGSLSRSDRIAKYNQLLRIEEELGENAIYPGIKAFVFNSDEEVEEDVQEIIVEDSEAEKVVVQVEE
# Target: the molecule itself
# Experiment: cryo-EM structure
protein,measurement,value
B1,stoichiometry N,2
